Trimeric HA Binding RLU and ELISA virus binding (OD450) data for 2 substances are collected here from patent US20150104459A1.

Experiment [1] has as its target recombinant soluble homotrimeric HA of A/common magpie/Hong Kong/5052/07 (H5N1) (Influenza A virus A/common magpie/Hong Kong/5052/2007 (H5N1)). As to the kind of experiment: HA microarray, control mAb.
Experiment [2] has as its target M2 protein of influenza A/Japan/305/57 (H2N2), on inactivated whole virions (influenza A virus A/Japan/305/57 (H2N2)). As to the kind of experiment: ELISA, positive control antibody on inactivated whole virions. (An ELISA detects its analyte on a solid surface through an enzyme-linked reagent.)

TCN-032 (8I10) (antibody), sequence (VH): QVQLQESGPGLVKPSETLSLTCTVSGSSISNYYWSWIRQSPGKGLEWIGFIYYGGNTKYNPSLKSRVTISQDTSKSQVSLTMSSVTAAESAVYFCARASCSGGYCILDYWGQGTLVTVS
TCN-032 (8I10) (antibody), sequence (VL): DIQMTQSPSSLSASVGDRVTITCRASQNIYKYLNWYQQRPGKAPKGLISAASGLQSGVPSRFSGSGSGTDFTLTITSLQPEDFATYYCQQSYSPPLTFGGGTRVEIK

TCN-202 (2N9) (antibody): the Trimeric HA Binding RLU in experiment [1] worked out at 162 RLU. Substance TCN-032 (8I10) (antibody) yielded an ELISA virus binding (OD450) in experiment [2] of 3.61 OD450.
